Reference: US20150374794A1 (Novo Nordisk, published 2015)
Numbered stars: 1 amine (or outer) side, 2 acyl side, 3 side chain; on linkers, the order of the positions; unused ones are H or OH. Square brackets hold non-standard residues; d marks the D form. Side chains are listed from the residue outwards. Ends that are not written are not given here. * marks the point of attachment. C18 diacid = O=C(O)CCCCCCCCCCCCCCCCC(=O)*; γGlu = O=C(O)[C@H](CCC(=O)[*:2])N[*:1]; AEEA = NCCOCCOCC(=O)O; Aib = CC(C)(N)C(=O)O

B1: N^ε28-[2-[2-[2-[[2-[2-[2-[[(4S)-4-carboxy-4-[[(4S)-4-carboxy-4-[[(4S)-4-carboxy-4-(17-carboxyheptadecanoylamino)butanoyl]amino]butanoyl]amino]butanoyl]amino]eth … (peptide)
peptide: H[Aib]QGTFTSDLSRYLDARRAQDFVQWLLK([AEEA-AEEA-γGlu-γGlu-γGlu-C18 diacid])T-NH2
modifications: N-terminus assumed
SMILES: CC(C)C[C@H](NC(=O)[C@H](Cc1ccc(O)cc1)NC(=O)[C@H](CCCNC(=N)N)NC(=O)[C@H](CO)NC(=O)[C@H](CC(C)C)NC(=O)[C@H](CC(=O)O)NC(=O)[C@H](CO)NC(=O)[C@@H](NC(=O)[C@H](Cc1ccccc1)NC(=O)[C@@H](NC(=O)CNC(=O)[C@H](CCC(N)=O)NC(=O)C(C)(C)NC(=O)[C@@H](N)Cc1c[nH]cn1)[C@@H](C)O)[C@@H](C)O)C(=O)N[C@@H](CC(=O)O)C(=O)N[C@@H](C)C(=O)N[C@@H](CCCNC(=N)N)C(=O)N[C@@H](CCCNC(=N)N)C(=O)N[C@@H](C)C(=O)N[C@@H](CCC(N)=O)C(=O)N[C@@H](CC(=O)O)C(=O)N[C@@H](Cc1ccccc1)C(=O)N[C@H](C(=O)N[C@@H](CCC(N)=O)C(=O)N[C@@H](Cc1c[nH]c2ccccc12)C(=O)N[C@@H](CC(C)C)C(=O)N[C@@H](CC(C)C)C(=O)N[C@@H](CCCCNC(=O)COCCOCCNC(=O)COCCOCCNC(=O)CC[C@H](NC(=O)CC[C@H](NC(=O)CC[C@H](NC(=O)CCCCCCCCCCCCCCCCC(=O)O)C(=O)O)C(=O)O)C(=O)O)C(=O)N[C@H](C(N)=O)[C@@H](C)O)C(C)C
B2: N^ε28-[2-[2-[2-[[2-[2-[2-[[(4S)-4-carboxy-4-[[(4S)-4-carboxy-4-[[(4S)-4-carboxy-4-(17-carboxyheptadecanoylamino)butanoyl]amino]butanoyl]amino]butanoyl]amino]eth … (peptide)
peptide: H[Aib]QGTFTSDVSKYLDARRAQDFVQWLLK([AEEA-AEEA-γGlu-γGlu-γGlu-C18 diacid])T-NH2
modifications: N-terminus assumed
SMILES: CC(C)C[C@H](NC(=O)[C@H](Cc1ccc(O)cc1)NC(=O)[C@H](CCCCN)NC(=O)[C@H](CO)NC(=O)[C@@H](NC(=O)[C@H](CC(=O)O)NC(=O)[C@H](CO)NC(=O)[C@@H](NC(=O)[C@H](Cc1ccccc1)NC(=O)[C@@H](NC(=O)CNC(=O)[C@H](CCC(N)=O)NC(=O)C(C)(C)NC(=O)[C@@H](N)Cc1c[nH]cn1)[C@@H](C)O)[C@@H](C)O)C(C)C)C(=O)N[C@@H](CC(=O)O)C(=O)N[C@@H](C)C(=O)N[C@@H](CCCNC(=N)N)C(=O)N[C@@H](CCCNC(=N)N)C(=O)N[C@@H](C)C(=O)N[C@@H](CCC(N)=O)C(=O)N[C@@H](CC(=O)O)C(=O)N[C@@H](Cc1ccccc1)C(=O)N[C@H](C(=O)N[C@@H](CCC(N)=O)C(=O)N[C@@H](Cc1c[nH]c2ccccc12)C(=O)N[C@@H](CC(C)C)C(=O)N[C@@H](CC(C)C)C(=O)N[C@@H](CCCCNC(=O)COCCOCCNC(=O)COCCOCCNC(=O)CC[C@H](NC(=O)CC[C@H](NC(=O)CC[C@H](NC(=O)CCCCCCCCCCCCCCCCC(=O)O)C(=O)O)C(=O)O)C(=O)O)C(=O)N[C@H](C(N)=O)[C@@H](C)O)C(C)C

What was measured:
[1] = biological target: T1, human GLP-1 receptor (human, UniProt P43220 24-463); assay: displacement of 125I-GLP-1(7-36)NH2, membranes with human GLP-1R, SPA
T1 construct: whole, on cells; the potency assay used whole cells (clone FCW467-12A/KZ10-1)
Experimental: (§1) The receptor binding of each compound to the human GLP-1 receptor was measured in a displacement binding assay. […] Each derivative was added in a series of concentrations to isolated membranes containing the human GLP-1 receptor and displacement of the labelled ligand was monitored. The receptor binding was reported as the concentration at which half of the labelled ligand was displaced from the receptor, the IC₅₀ value.

[2] = biological target: T2, human glucagon receptor (human, UniProt P47871 26-477); assay: cell-based or functional assay
T2 sequence (P47871 26-477): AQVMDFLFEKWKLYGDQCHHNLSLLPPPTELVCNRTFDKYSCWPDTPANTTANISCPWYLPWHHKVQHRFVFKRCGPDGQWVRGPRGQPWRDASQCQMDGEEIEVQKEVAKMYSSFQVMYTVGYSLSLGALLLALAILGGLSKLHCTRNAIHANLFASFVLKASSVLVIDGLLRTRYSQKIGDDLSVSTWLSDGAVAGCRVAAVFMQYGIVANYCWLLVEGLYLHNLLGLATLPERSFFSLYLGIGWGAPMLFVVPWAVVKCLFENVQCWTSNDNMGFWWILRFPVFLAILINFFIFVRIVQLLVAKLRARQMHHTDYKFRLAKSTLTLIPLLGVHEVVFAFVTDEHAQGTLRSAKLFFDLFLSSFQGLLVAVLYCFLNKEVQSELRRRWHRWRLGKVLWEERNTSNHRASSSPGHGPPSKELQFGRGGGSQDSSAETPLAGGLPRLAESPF

[3] = biological target: T1, human GLP-1 receptor; assay: cell-based or functional assay
[4] = biological target: T2, human glucagon receptor; assay: displacement of 125I-glucagon, membranes with human glucagon receptor, SPA
Experimental: as §1, with “human glucagon” for “human GLP-1”, “ligand is” for “ligand was”

Binder	IC50 [1] [nM]	EC50 GlucR, CRE luciferase reporter gene assay in BHK cells [2] [nM]	EC50 GLP-1R, CRE luciferase reporter gene assay in BHK cells [3] [nM]	IC50 [4] [nM]
B1	0.9	0.02	0.003	5.5
B2	0.2	0.03	0.0015	3.2
